The data set in a line: melting temperature; melt of duplexes. To be noted: sodium 0.0675 M; strand 1 µM.
In the case of “CGACGTGCGCAATGTGCTG+CAGCACATACGGCACGTCG ((((((((...((((((((+))))))))...))))))))”, the melting temperature (Tm) was 48.6 °C.
On to “CGACGTGCCATATGTGCTG+CAGCACATCAGGCACGTCG (((((((((..((((((((+))))))))..)))))))))”, for which the Tm amounted to 53.5 °C.
As for “CGACGTGCCATATGTGCTG+CAGCACATGGGGCACGTCG (((((((((..((((((((+))))))))..)))))))))”, the figure is 56.7 °C; as for “CGACGTGCGTGATGTGCTG+CAGCACATTGGGCACGTCG ((((((((...((((((((+))))))))...))))))))”, 52.3 °C; as for “CGACGTGCACTATGTGCTG+CAGCACATGGTGCACGTCG ((((((((((.((((((((+)))))))).))))))))))”, 56.6 °C.
Regarding “CGACGTGCTATATGTGCTG+CAGCACATGTCGCACGTCG ((((((((.(.((((((((+)))))))).).))))))))”, the Tm is 51.4 °C.
As for “CGACGTGCCTGATGTGCTG+CAGCACATTGGGCACGTCG (((((((((..((((((((+))))))))..)))))))))”, the Tm was 57.1 °C.
As to “CGACGTGCACCATGTGCTG+CAGCACATTACGCACGTCG ((((((((...((((((((+))))))))...))))))))”, the Tm stood at 42.4 °C.
On to “CGACGTGCTCTATGTGCTG+CAGCACATTACGCACGTCG ((((((((...((((((((+))))))))...))))))))”, for which the melting temperature (Tm) is 47.8 °C.
In the case of “CGACGTGCGATATGTGCTG+CAGCACATCCTGCACGTCG ((((((((...((((((((+))))))))...))))))))”, the melting temperature (Tm) was determined as 49.5 °C.
In the case of “CGACGTGCATGATGTGCTG+CAGCACATCAAGCACGTCG ((((((((.((((((((((+)))))))))).))))))))”, the Tm was 56.5 °C.
Regarding “CGACGTGCATCATGTGCTG+CAGCACATCCAGCACGTCG ((((((((...((((((((+))))))))...))))))))”, the midpoint of thermal melting (Tm) was determined as 46.6 °C.
As for “CGACGTGCGGAATGTGCTG+CAGCACATTCTGCACGTCG ((((((((.((((((((((+)))))))))).))))))))”, the midpoint of thermal melting (Tm) came out at 61.1 °C.
Turning to “CGACGTGCCGTATGTGCTG+CAGCACATGACGCACGTCG ((((((((...((((((((+))))))))...))))))))”, the Tm is 47.8 °C.
On to “CGACGTGCTATATGTGCTG+CAGCACATGCCGCACGTCG ((((((((...((((((((+))))))))...))))))))”, for which the Tm was 48.9 °C.
In the case of “CGACGTGCCCGATGTGCTG+CAGCACATGCCGCACGTCG ((((((((...((((((((+))))))))...))))))))” it was 48.1 °C; in that of “CGACGTGCAATATGTGCTG+CAGCACATGAGGCACGTCG ((((((((...((((((((+))))))))...))))))))”, 51.3 °C; in that of “CGACGTGCCGCATGTGCTG+CAGCACATAACGCACGTCG ((((((((...((((((((+))))))))...))))))))”, 48.3 °C.
In the case of “CGACGTGCTTTATGTGCTG+CAGCACATTTCGCACGTCG ((((((((...((((((((+))))))))...))))))))” it was 47.7 °C; in that of “CGACGTGCAGGATGTGCTG+CAGCACATGCTGCACGTCG ((((((((((.((((((((+)))))))).))))))))))”, 59.6 °C.
In the case of “CGACGTGCCGTATGTGCTG+CAGCACATAATGCACGTCG ((((((((..(((((((((+)))))))))..))))))))” it was 50.3 °C.
For the substance “CGACGTGCCCAATGTGCTG+CAGCACATGTTGCACGTCG ((((((((...((((((((+))))))))...))))))))”, the melting temperature (Tm) stood at 49.4 °C.
As for “CGACGTGCAGGATGTGCTG+CAGCACATCAGGCACGTCG ((((((((..(((((((((+)))))))))..))))))))”, the Tm came out at 56.6 °C.
In the case of “CGACGTGCGGTATGTGCTG+CAGCACATGATGCACGTCG ((((((((...((((((((+))))))))...))))))))” it was 52.2 °C.
On to “CGACGTGCGTGATGTGCTG+CAGCACATCTCGCACGTCG (((((((((.(((((((((+))))))))).)))))))))”, for which the Tm came to 61.3 °C.
Regarding “CGACGTGCAGTATGTGCTG+CAGCACATTTCGCACGTCG ((((((((...((((((((+))))))))...))))))))”, the Tm stood at 49.7 °C.
Regarding “CGACGTGCTATATGTGCTG+CAGCACATCGCGCACGTCG ((((((((...((((((((+))))))))...))))))))”, the midpoint of thermal melting (Tm) was 46.6 °C.
“CGACGTGCAGTATGTGCTG+CAGCACATAATGCACGTCG (((((((((.(((((((((+))))))))).)))))))))”: the Tm is 57 °C.
For “CGACGTGCTCCATGTGCTG+CAGCACATGCAGCACGTCG (((((((((.(((((((((+))))))))).)))))))))”, the Tm turned out to be 55.3 °C.
Regarding “CGACGTGCGTAATGTGCTG+CAGCACATGCCGCACGTCG (((((((((..((((((((+))))))))..)))))))))”, the Tm was found to be 54.9 °C.
In the case of “CGACGTGCAGAATGTGCTG+CAGCACATAATGCACGTCG (((((((((..((((((((+))))))))..)))))))))”, the Tm stood at 54.2 °C.
Consider “CGACGTGCTGAATGTGCTG+CAGCACATAGGGCACGTCG ((((((((...((((((((+))))))))...))))))))”, for which the midpoint of thermal melting (Tm) is 50.7 °C.
Regarding “CGACGTGCGCCATGTGCTG+CAGCACATAGCGCACGTCG ((((((((((.((((((((+)))))))).))))))))))”, the Tm came to 58.9 °C.
As for “CGACGTGCCCGATGTGCTG+CAGCACATACTGCACGTCG ((((((((...((((((((+))))))))...))))))))”, the figure is 48.7 °C; as for “CGACGTGCGTTATGTGCTG+CAGCACATAACGCACGTCG (((((((((((((((((((+)))))))))))))))))))”, 63.6 °C.
In the case of “CGACGTGCTTGATGTGCTG+CAGCACATACGGCACGTCG ((((((((...((((((((+))))))))...))))))))”, the Tm was 49.2 °C.
For the substance “CGACGTGCTGCATGTGCTG+CAGCACATGCTGCACGTCG ((((((((.((((((((((+)))))))))).))))))))”, the Tm came to 61.2 °C.
On to “CGACGTGCATTATGTGCTG+CAGCACATTTCGCACGTCG ((((((((...((((((((+))))))))...))))))))”, for which the Tm worked out at 48.3 °C.
As for “CGACGTGCAACATGTGCTG+CAGCACATGTCGCACGTCG ((((((((.((((((((((+)))))))))).))))))))”, the figure is 57.8 °C; as for “CGACGTGCAGTATGTGCTG+CAGCACATGCGGCACGTCG ((((((((.(.((((((((+)))))))).).))))))))”, 55.3 °C; as for “CGACGTGCCAGATGTGCTG+CAGCACATCTCGCACGTCG ((((((((.((((((((((+)))))))))).))))))))”, 55.9 °C.
As to “CGACGTGCGTCATGTGCTG+CAGCACATCCAGCACGTCG ((((((((...((((((((+))))))))...))))))))”, the Tm was 50.7 °C.
For “CGACGTGCGACATGTGCTG+CAGCACATCCGGCACGTCG ((((((((...((((((((+))))))))...))))))))”, the melting temperature (Tm) stood at 48.9 °C.
Regarding “CGACGTGCTTAATGTGCTG+CAGCACATTATGCACGTCG ((((((((.((((((((((+)))))))))).))))))))”, the midpoint of thermal melting (Tm) stood at 56.5 °C.
Take “CGACGTGCGAAATGTGCTG+CAGCACATTCTGCACGTCG ((((((((..(((((((((+)))))))))..))))))))”: the Tm stood at 53.7 °C.
Take “CGACGTGCTGCATGTGCTG+CAGCACATATCGCACGTCG ((((((((...((((((((+))))))))...))))))))”: the Tm stood at 48.3 °C.
As for “CGACGTGCGTCATGTGCTG+CAGCACATCGAGCACGTCG ((((((((...((((((((+))))))))...))))))))”, the figure is 52.3 °C; as for “CGACGTGCGTTATGTGCTG+CAGCACATCGGGCACGTCG ((((((((...((((((((+))))))))...))))))))”, 48.6 °C; as for “CGACGTGCTCTATGTGCTG+CAGCACATGCGGCACGTCG ((((((((...((((((((+))))))))...))))))))”, 48.5 °C.
In the case of “CGACGTGCAAAATGTGCTG+CAGCACATCGCGCACGTCG ((((((((...((((((((+))))))))...))))))))” it was 48.9 °C.
As to “CGACGTGCGACATGTGCTG+CAGCACATTCTGCACGTCG ((((((((...((((((((+))))))))...))))))))”, the Tm came to 51.3 °C.
“CGACGTGCGTCATGTGCTG+CAGCACATACAGCACGTCG ((((((((...((((((((+))))))))...))))))))”: the melting temperature (Tm) amounted to 53 °C.
With “CGACGTGCACCATGTGCTG+CAGCACATGGTGCACGTCG (((((((((((((((((((+)))))))))))))))))))”, the midpoint of thermal melting (Tm) worked out at 65.2 °C.
For “CGACGTGCAGAATGTGCTG+CAGCACATACAGCACGTCG ((((((((.(.((((((((+)))))))).).))))))))”, the midpoint of thermal melting (Tm) worked out at 52 °C.
In the case of “CGACGTGCGGAATGTGCTG+CAGCACATCTTGCACGTCG ((((((((...((((((((+))))))))...))))))))” it was 50.8 °C; in that of “CGACGTGCTAAATGTGCTG+CAGCACATTTGGCACGTCG ((((((((.((((((((((+)))))))))).))))))))”, 57.9 °C.
As for “CGACGTGCTTGATGTGCTG+CAGCACATATGGCACGTCG ((((((((...((((((((+))))))))...))))))))”, the Tm is 51 °C.
As for “CGACGTGCAGGATGTGCTG+CAGCACATCACGCACGTCG ((((((((..(((((((((+)))))))))..))))))))”, the Tm came to 55.9 °C.
As to “CGACGTGCCGGATGTGCTG+CAGCACATGGAGCACGTCG ((((((((...((((((((+))))))))...))))))))”, the Tm amounted to 51 °C.
In the case of “CGACGTGCGTTATGTGCTG+CAGCACATCCTGCACGTCG ((((((((...((((((((+))))))))...))))))))”, the Tm is 49.2 °C.
For “CGACGTGCGCGATGTGCTG+CAGCACATATAGCACGTCG ((((((((...((((((((+))))))))...))))))))”, the midpoint of thermal melting (Tm) worked out at 51.8 °C.
As to “CGACGTGCGAAATGTGCTG+CAGCACATATAGCACGTCG ((((((((.(.((((((((+)))))))).).))))))))”, the Tm came out at 54.3 °C.
For “CGACGTGCGCTATGTGCTG+CAGCACATTTGGCACGTCG ((((((((...((((((((+))))))))...))))))))”, the Tm was determined as 49.2 °C.
In the case of “CGACGTGCGCGATGTGCTG+CAGCACATTGCGCACGTCG ((((((((((.((((((((+)))))))).))))))))))”, the Tm was 63.5 °C.
In the case of “CGACGTGCCCGATGTGCTG+CAGCACATAATGCACGTCG ((((((((...((((((((+))))))))...))))))))” it was 48.1 °C; in that of “CGACGTGCGAAATGTGCTG+CAGCACATACCGCACGTCG (((((((((..((((((((+))))))))..)))))))))”, 53.9 °C.
